Results on twelve molecules are retold here after US20100075908A1 (published 2010).

Non-standard residues stand in square brackets, D forms with d. No end group written: not given here.

B1: L10 (HPG conjugate with 10 L-peptides per HPG) (other)
peptide: CGGGGGGSHAYIGLKDR
modifications: also: coupled through vinyl sulfone to 500 kDa hyperbranched polyglycerol, about 10 peptides per HPG
B2: L100 (HPG conjugate with 100 L-peptides per HPG) (other)
peptide: CGGGGGGSHAYIGLKDR
modifications: also: coupled via vinyl sulfone to 500 kDa hyperbranched polyglycerol (HPG), about 100 peptides per HPG
B3: L-CGGGGGGSHAYIGLKDR (L-peptide) (peptide)
peptide: CGGGGGGSHAYIGLKDR
notes: L-amino acids; free peptide
B4: GPIIbIIIa mimotope peptide 2 (EHIPA) (peptide)
peptide: EHIPA
modifications: also: coupled to PEG 3400 carrying biotin, coupled end not given here
notes: also called B-peptide 2
B5: GPIIbIIIa mimotope peptide 1 (APLHK) (peptide)
peptide: APLHK
modifications: also: coupled to PEG 3400 carrying biotin, coupled end not given here
notes: also called A-peptide 1
B6: fibrinogen (ligand)
chain 1: ADSGEGDFLAEGGGVRGPRVVERHQSACKDSDWPFCSDEDWNYKCPSGCRMKGLIDEVNQDFTNRINKLKNSLFEYQKNNKDSHSLTTNIMEILRGDFSSANNRDNTYNRVSEDLRSRIEVLKRKVIEKVQHIQLLQKNVRAQLVDMKRLEVDIDIKIRSCRGSCSRALAREVDLKDYEDQQKQLEQVIAKDLLPSRDRQHLPLIKMKPVPDLVPGNFKSQLQKVPPEWKALTDMPQMRMELERPGGNEITRGGSTSYGTGSETESPRNPSSAGSWNSGSSGPGSTGNRNPGSSGTGGTATWKPGSSGPGSTGSWNSGSSGTGSTGNQNPGSPRPGSTGTWNPGSSERGSAGHWTSESSVSGSTGQWHSESGSFRPDSPGSGNARPNNPDWGTFEEVSGNVSPGTRREYHTEKLVTSKGDKELRTGKEKVTSGSTTTTRRSCSKTVTKTVIGPDGHKEVTKEVVTSEDGSDCPEAMDLGTLSGIGTLDGFRHRHPDEAAFFDTASTGKTFPGFFSPMLGEFVSETESRGSESGIFTNTKESSSHHPGIAEFPSRGKSSSYSKQFTSSTSYNRGDSTFESKSYKMADEAGSEADHEGTHSTKRGHAKSRPV
chain 2: QGVNDNEEGFFSARGHRPLDKKREEAPSLRPAPPPISGGGYRARPAKAAATQKKVERKAPDAGGCLHADPDLGVLCPTGCQLQEALLQQERPIRNSVDELNNNVEAVSQTSSSSFQYMYLLKDLWQKRQKQVKDNENVVNEYSSELEKHQLYIDETVNSNIPTNLRVLRSILENLRSKIQKLESDVSAQMEYCRTPCTVSCNIPVVSGKECEEIIRKGGETSEMYLIQPDSSVKPYRVYCDMNTENGGWTVIQNRQDGSVDFGRKWDPYKQGFGNVATNTDGKNYCGLPGEYWLGNDKISQLTRMGPTELLIEMEDWKGDKVKAHYGGFTVQNEANKYQISVNKYRGTAGNALMDGASQLMGENRTMTIHNGMFFSTYDRDNDGWLTSDPRKQCSKEDGGGWWYNRCHAANPNGRYYWGGQYTWDMAKHGTDDGVVWMNWKGSWYSMRKMSMKIRPFFPQQ
chain 3: YVATRDNCCILDERFGSYCPTTCGIADFLSTYQTKVDKDLQSLEDILHQVENKTSEVKQLIKAIQLTYNPDESSKPNMIDAATLKSRKMLEEIMKYEASILTHDSSIRYLQEIYNSNNQKIVNLKEKVAQLEAQCQEPCKDTVQIHDITGKDCQDIANKGAKQSGLYFIKPLKANQQFLVYCEIDGSGNGWTVFQKRLDGSVDFKKNWIQYKEGFGHLSPTGTTEFWLGNEKIHLISTQSAIPYALRVELEDWNGRTSTADYAMFKVGPEADKYRLTYAYFAGGDAGDAFDGFDFGDDPSDKFFTSHNGMQFSTWDNDNDKFEGNCAEQDGSGWWMNKCHAGHLNGVYYQGGTYSKASTPNGYDNGIIWATWKTRWYSMKKTTMKIIPFNRLTIGEGQQHHLGGAKQAGDV
notes: Soluble plasma fibrinogen flowed over the Biacore chip; also called free fibrinogen
B7: L-CGGGGGGRDKLGIYAHS (L-retro peptide) (peptide)
peptide: CGGGGGGRDKLGIYAHS
notes: Linker CGGGGGG followed by the reversed mimotope; L-amino acids; free peptide; also called LR-pep; LR-peptide
B8: LR10 (HPG conjugate with 10 L-retro peptides per HPG) (other)
peptide: CGGGGGGRDKLGIYAHS
modifications: also: coupled through vinyl sulfone to 500 kDa hyperbranched polyglycerol, about 10 peptides per HPG
notes: Peptide-polymer conjugate
B9: D-… (D-retro peptide; SEQ ID NO:12) (peptide)
peptide: [dC]GGGGGG[dR][dD][dK][dL]G[dI][dY][dA][dH][dS]
modifications: not fully specified
B10: LR100 (HPG conjugate with 100 L-retro peptides per HPG) (other)
peptide: CGGGGGGRDKLGIYAHS
modifications: also: coupled via vinyl sulfone to 500 kDa hyperbranched polyglycerol (HPG), about 100 peptides per HPG
notes: Peptide-polymer conjugate
B11: SHAYIGLKDR (SEQ ID NO:8) (peptide)
peptide: SHAYIGLKDR
B12: D-pep3 (…) (peptide)
peptide: [dR][dS][dA][dR][dM][dQ][dV][dC][dW][dN][dA][dF][dK][dN][dR]

Test [1] deals with T1, GPIb on human platelets (human, UniProt P07359 17-652; P13224 26-206). The test is described as follows: cell-based or functional assay.
In test [2] the target is T1, GPIb on human platelets. The test can be described thus: inhibition of vWf binding to platelets in PRP, flow cytometry (FITC anti-human vWf). How it is done:
In order to prepare human platelets for testing, as approved by Canadian Blood Services' Ethics Board, samples of whole blood were drawn from healthy, consenting donors into 2.7-4.0 mL citrated tubes (BD, USA). Platelet rich plasma (PRP) was prepared from whole blood by centrifugation in a Beckman (CS-6R) bench-top centrifuge (r=203.57 mm, Beckman Coulter, USA) 164×g for 15 minutes. PRP from a number of unrelated donors were evaluated on an Adiva 120 Hematology Analyzer (Bayer, Canada) and standardized to a concentration of 300×10⁹ platelets/L in HEPES buffered saline (HBS, 10 mM HEPES, 150 mM NaCl, pH 7.4).
Thereafter the samples were diluted and fixed with 1.0 mL 0.2% formolsaline (0.2% formaldehyde, 150 mM NaCl, pH 7.20) before analysis on a FACS Canto flow cytometer (BD, USA).
(In general: A flow cytometer gives signals particle by particle.)

The target in the test “fibrinogen” is B6. The test can be described thus: SPR (Biacore), peptide-PEG-biotin on streptavidin chip, fibrinogen in flow, Langmuir analysis. The source says: In this case, peptides known to interfere with fibrinogen-GPIIbIIIa interaction were synthesized, and coupled to the end of a long (3400 MW) PEG molecule whose other end was attached to biotin, as illustrated schematically in FIG. 7. As is known in the art, fibrinogen is a soluble protein in the blood plasma essential for clotting of blood which the enzyme thrombin converts into the insoluble protein fibrin. As shown schematically in FIG. 7, the biotin molecule was used to tether down the peptide-PEG onto a streptavidin-modified Biacore chip. This allowed the GPIIbIIIa mimicking peptide to be hanging off the free end of the PEG.
By allowing free fibrinogen to flow past the peptide, the binding kinetics (i.e., the “on/off rate”) between fibrinogen and the peptides were measured. Then, the fibrinogen was released from the peptide. Using several fibrinogen concentrations, it was possible to measure the KD of the binding interaction between the peptide and the fibrinogen.

Another test addresses T2, wild-type GPIIbIIIa (UniProt P08514 32-1039; P05106 27-788, limits assumed).
T2 construct: also called wild-type GPIIaIIIb (so in the source); integrin alphaIIbbeta3
The test is described as follows: not stated (comparison value given with the SPR results).

Test [3] concerns the target T1, GPIb on human platelets. The test is described as follows: conclusion from inhibition of vWf binding to platelets, flow cytometry.
Test [4] has as its target von Willebrand factor (vWf) (human) (UniProt P04275). The test is described as follows: cell-based or functional assay.

Consider B1, for which the “Aggregometry % Aggregation on Activation” value in the test with GPIb on human platelets [1] stood at 5%.
For the molecule B2, the “Aggregometry % Aggregation on Activation” value with GPIb on human platelets [1] amounted to 5%.
A word on the IC50: it is the point on the concentration scale where inhibition reaches its midpoint. As for B3, in the test with GPIb on human platelets [1], the “Aggregometry % Aggregation on Activation” value stood at 5%. In the test with GPIb on human platelets [2], the half-maximal inhibitory concentration (IC50) worked out at 48 µM and the “Peptide Concentration at Ic50” value was 48 µM.
Usually Kd stands for the equilibrium constant for the complex coming apart. A lower Kd goes with a tighter complex. B4: in the test with fibrinogen, the dissociation constant Kd stood at 0.334 µM.
For B5, the dissociation constant Kd with fibrinogen was 12.5 µM.
In the case of B6, in the test with wild-type GPIIbIIIa, the Kd came out at 0.103 µM.
As to B7, in the test with GPIb on human platelets [1], the “Aggregometry % Aggregation on Activation” value worked out at 5%. In the test with GPIb on human platelets [2], the IC50 amounted to 34 µM and the “Peptide Concentration at Ic50” value came to 34 µM.
As for B8, the “Aggregometry % Aggregation on Activation” value in the test with GPIb on human platelets [1] stood at 5%. Also, in the test with GPIb on human platelets [2], the “Peptide Concentration at Ic50” value worked out at 41 µM.
On to B9, for which the Aggregometry % Aggregation on Activation with GPIb on human platelets [1] turned out to be 78%.
Consider B10, for which the “Aggregometry % Aggregation on Activation” value with GPIb on human platelets [1] came to 5%. In the test with GPIb on human platelets [2], the “Peptide Concentration at Ic50” value stood at 22 µM.
Consider B11, for which, in the test with GPIb on human platelets [3], the binding result is on record as “binds”.
Take B12: in test [4], the % agglutination of washed platelets at 10 minutes, ristocetin, aggregometry, 0.1 mg/mL D-pep3 (buffer 66%, BSA 55%) stood at 69%; the % agglutination of washed platelets at 10 minutes, ristocetin, aggregometry, 0.25 mg/mL D-pep3 (buffer 66%, BSA 55%) is 28%; the % agglutination of washed platelets at 10 minutes, ristocetin, aggregometry, 0.5 mg/mL D-pep3 (buffer 66%, BSA 55%) was determined as 13%.
